T1: pN-TALER IV-1-EE2 (GinL7C7-EE2-TALE13) (synthetic)
T1 chain: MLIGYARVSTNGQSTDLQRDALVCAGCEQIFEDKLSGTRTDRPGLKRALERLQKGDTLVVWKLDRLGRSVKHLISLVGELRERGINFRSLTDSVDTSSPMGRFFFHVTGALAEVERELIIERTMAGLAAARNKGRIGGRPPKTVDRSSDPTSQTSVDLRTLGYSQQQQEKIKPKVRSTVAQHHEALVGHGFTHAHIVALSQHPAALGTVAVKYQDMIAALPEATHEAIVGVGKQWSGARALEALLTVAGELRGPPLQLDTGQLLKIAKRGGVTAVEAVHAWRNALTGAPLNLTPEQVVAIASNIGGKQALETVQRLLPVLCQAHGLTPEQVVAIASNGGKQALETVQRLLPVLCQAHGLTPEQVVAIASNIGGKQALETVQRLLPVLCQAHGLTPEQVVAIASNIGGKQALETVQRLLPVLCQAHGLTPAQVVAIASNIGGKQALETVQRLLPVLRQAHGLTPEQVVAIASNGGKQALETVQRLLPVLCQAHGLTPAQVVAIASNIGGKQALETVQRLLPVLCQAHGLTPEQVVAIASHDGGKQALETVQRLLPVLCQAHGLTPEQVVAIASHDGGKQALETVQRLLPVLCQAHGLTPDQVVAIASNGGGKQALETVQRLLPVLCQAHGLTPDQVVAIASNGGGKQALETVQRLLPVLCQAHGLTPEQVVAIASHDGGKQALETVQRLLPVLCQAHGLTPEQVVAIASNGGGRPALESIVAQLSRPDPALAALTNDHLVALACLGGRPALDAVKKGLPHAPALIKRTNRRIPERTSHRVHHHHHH

T2: sN-TALER IV-2 (GinH106Y-TALE13) (synthetic)
T2 chain: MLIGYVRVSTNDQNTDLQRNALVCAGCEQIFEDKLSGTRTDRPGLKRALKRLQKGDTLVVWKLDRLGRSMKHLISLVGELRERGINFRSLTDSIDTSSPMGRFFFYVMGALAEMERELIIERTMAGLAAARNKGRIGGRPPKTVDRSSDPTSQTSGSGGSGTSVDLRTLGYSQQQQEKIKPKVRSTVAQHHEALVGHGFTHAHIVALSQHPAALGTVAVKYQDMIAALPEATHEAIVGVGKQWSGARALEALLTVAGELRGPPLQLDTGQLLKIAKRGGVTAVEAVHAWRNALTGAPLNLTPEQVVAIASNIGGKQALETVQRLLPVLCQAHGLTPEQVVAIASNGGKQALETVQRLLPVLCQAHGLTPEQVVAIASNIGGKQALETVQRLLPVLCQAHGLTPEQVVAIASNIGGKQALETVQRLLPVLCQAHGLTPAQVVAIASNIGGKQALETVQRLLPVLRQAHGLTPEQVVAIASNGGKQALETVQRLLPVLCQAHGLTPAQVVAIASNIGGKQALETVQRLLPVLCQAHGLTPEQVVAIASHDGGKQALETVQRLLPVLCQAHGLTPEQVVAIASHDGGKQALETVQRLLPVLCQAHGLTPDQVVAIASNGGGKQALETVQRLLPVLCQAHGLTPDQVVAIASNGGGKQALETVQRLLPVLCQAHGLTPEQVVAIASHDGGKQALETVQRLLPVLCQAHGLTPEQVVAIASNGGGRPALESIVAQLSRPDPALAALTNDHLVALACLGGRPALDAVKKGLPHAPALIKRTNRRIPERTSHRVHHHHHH

T3: sN-TALER IV-1 (GinH106Y-TALE13) (synthetic)
T3 chain: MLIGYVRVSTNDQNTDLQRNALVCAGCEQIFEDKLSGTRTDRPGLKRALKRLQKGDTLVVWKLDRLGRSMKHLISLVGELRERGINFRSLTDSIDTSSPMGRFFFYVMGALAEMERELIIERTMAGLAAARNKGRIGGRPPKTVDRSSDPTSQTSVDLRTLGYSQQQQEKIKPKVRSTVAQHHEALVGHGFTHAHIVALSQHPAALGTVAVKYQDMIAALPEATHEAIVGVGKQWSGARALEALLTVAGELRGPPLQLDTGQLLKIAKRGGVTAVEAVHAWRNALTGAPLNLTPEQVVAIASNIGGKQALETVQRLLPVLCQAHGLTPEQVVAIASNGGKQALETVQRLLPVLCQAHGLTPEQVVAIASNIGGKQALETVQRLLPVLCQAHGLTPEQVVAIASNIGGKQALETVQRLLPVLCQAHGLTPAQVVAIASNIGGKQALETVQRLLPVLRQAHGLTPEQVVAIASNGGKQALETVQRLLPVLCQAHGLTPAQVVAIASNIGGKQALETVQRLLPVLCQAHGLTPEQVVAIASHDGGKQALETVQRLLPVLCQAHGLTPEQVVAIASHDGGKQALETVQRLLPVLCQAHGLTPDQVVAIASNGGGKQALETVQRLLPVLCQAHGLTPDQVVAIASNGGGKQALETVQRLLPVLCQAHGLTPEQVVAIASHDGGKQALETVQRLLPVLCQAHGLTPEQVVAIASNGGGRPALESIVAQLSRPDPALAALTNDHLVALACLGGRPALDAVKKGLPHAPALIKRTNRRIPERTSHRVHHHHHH

B1: Gin20TALE+7 (dsDNA)
DNA 1: AGAAGGTATTTATATAGGTTATCCAAAACCATGGTTTACAGGACGGTATATAAATACCTTCT
DNA 2: AGAAGGTATTTATATACCGTCCTGTAAACCATGGTTTTGGATAACCTATATAAATACCTTCT
B2: Gin20TALE+4 (dsDNA)
DNA 1: AGAAGGTATTTATATATATCCAAAACCATGGTTTACAGGCTATATAAATACCTTCT
DNA 2: AGAAGGTATTTATATAGCCTGTAAACCATGGTTTTGGATATATATAAATACCTTCT
B3: R47 (8bp) (dsDNA)
DNA 1: AGAAGGTATTTATATCTCTGACCATGGTCACACTTATAAATACCTTCT
DNA 2: AGAAGGTATTTATAAGTGTGACCATGGTCAGAGATATAAATACCTTCT
B4: Gin20TALE+6 (dsDNA)
DNA 1: AGAAGGTATTTATATAGTTATCCAAAACCATGGTTTACAGGACGTATATAAATACCTTCT
DNA 2: AGAAGGTATTTATATACGTCCTGTAAACCATGGTTTTGGATAACTATATAAATACCTTCT
B5: Gin20TALE+9 (dsDNA)
DNA 1: AGAAGGTATTTATATAGGCATTATCCAAAACCATGGTTTACAGGACACGGTATATAAATACCTTCT
DNA 2: AGAAGGTATTTATATACCGTGTCCTGTAAACCATGGTTTTGGATAATGCCTATATAAATACCTTCT
B6: Gin20TALE+2 (dsDNA)
DNA 1: AGAAGGTATTTATATATCCAAAACCATGGTTTACAGTATATAAATACCTTCT
DNA 2: AGAAGGTATTTATATACTGTAAACCATGGTTTTGGATATATAAATACCTTCT
B7: Gin20TALE+1 (dsDNA)
DNA 1: AGAAGGTATTTATATTCCAAAACCATGGTTTACAGATATAAATACCTTCT
DNA 2: AGAAGGTATTTATATCTGTAAACCATGGTTTTGGAATATAAATACCTTCT
B8: Gin20TALE+3 (dsDNA)
DNA 1: AGAAGGTATTTATATAATCCAAAACCATGGTTTACAGGTATATAAATACCTTCT
DNA 2: AGAAGGTATTTATATACCTGTAAACCATGGTTTTGGATTATATAAATACCTTCT
B9: Gin20TALE+10 (dsDNA)
DNA 1: AGAAGGTATTTATATAGGCACTTATCCAAAACCATGGTTTACAGGACCACGGTATATAAATACCTTCT
DNA 2: AGAAGGTATTTATATACCGTGGTCCTGTAAACCATGGTTTTGGATAAGTGCCTATATAAATACCTTCT

Legend:
[1] = target: T1, pN-TALER IV-1-EE2 (GinL7C7-EE2-TALE13); test: cell_activity; E. coli; details: tags: 6-His
Description: (§1) To test for recombination, E. coli DH5alpha cells were co-transformed with different combinations of TALER expression construct and TALER reporter construct pairs (Tables 6 and 7). The N-TALER expression and reporter constructs were in an approximate 1:1 mass ratio during the transformation. The co-transformed bacteria were plated on media with chloramphenicol, kanamycin, and X-gal then incubated at 37° C. for 18 to 36 hours. Control samples consisted of transformations using the reporter construct alone. Control transformants were similarly plated. The bacterial transformation protocol was either heat shock or electroporation per standard molecular biology techniques.
Two additional N-TALERs, based on N-TALER IV-1, were constructed wherein the GinH106Y recombinase catalytic domain was replaced with either the GinL7C7-EE2 catalytic domain or the GinL7C7-EE3 permissive recombinase catalytic domain. These N-TALERs were labeled pN-TALER IV-1-EE2 (SEQ ID NO:41) and pN-TALER IV-1-EE3 (SEQ ID NO:45), respectively. pN-TALER IV-1-EE2 was tested in combination with seventeen N-TALER reporter constructs and pN-TALER IV-1-EE3 was tested with three reporter constructs (Table 10).

[2] = target: T2, sN-TALER IV-2 (GinH106Y-TALE13); test: cell_activity; E. coli; details: tags: 6-His
Description: as §1

[3] = target: T1, pN-TALER IV-1-EE2 (GinL7C7-EE2-TALE13); test: cell_activity; E. coli; details: tags: 6-His
Source text: To determine how much of the Gin20 sequence is required for recombination when the central sequence is maintained at a permitted length, N-TALER reporters were generated with a 20 bp recombinase central sequence between the TALE binding sites, where either the central 12 bp, or the central 10 bp, or the central 8 bp of the recombinase core sequence were held constant, and the remaining nucleotides were different from the Gin sequence. The N-TALER reporter with 12 bp was designated R45, the N-TALER reporter with 10 bp was designated R46, and the N-TALER reporter with 8 bp was designated R47. A N-TALER reporter with a 10 bp site 1 and a 12 bp site 2 was designated R46B, and a N-TALER reporter with a T and an A flanking the central AT di-nucleotide was designated R48 (see Table 33). The various reporters, including the pSC101 Gin20TALE13+0 were co-transformed with either sN-TALER-IV-1 or pN-TALER-IV-1 and recombination, as determined by colony color, was scored (Table 33). For purposes of comparison, the GinE site that was used in the generation of the GinL7C7-EE2 recombinase domain (Gersbach et al., 2010) was also included.
To confirm that white colonies resulted from recombination, the colonies were analyzed by colony PCR and sequencing of the PCR product. For the reporter that retained 12 bp from the Gin site, 8 of 8 colonies analyzed had the predicted recombination product for both the sN-TALER-IV-1 chimera and the pN-TALER-IV-1chimera (16 colonies total analyzed, 8 each). Likewise, for the reporter that retained 8 bp from the Gin site co-transformed with the pN-TALER-IV-1 chimera, 14 of 14 colonies analyzed had the predicted recombination product.

[4] = target: T3, sN-TALER IV-1 (GinH106Y-TALE13); test: cell_activity; E. coli; details: tags: 6-His; chain copies: 2 per site, tetramer in synapsis (stated)
Description: as §1

[5] = target: T3, sN-TALER IV-1 (GinH106Y-TALE13); test: cell_activity; E. coli; sequenced; details: tags: 6-His; chain copies: 2 per site, tetramer in synapsis (stated)
Description: as §1
PCR was used to confirm that the predicted recombination had occurred in colonies which were white or sectored. PCR primers were designed so that a PCR product of approximately 877 bp (depending on the length of the spacers) would be produced from the non-recombined reporter constructs, and a PCR product of approximately 470 bp would be produced from reporter constructs that had undergone N-TALER-mediated recombination. Standard colony PCR was performed on white, blue, and sectored colonies from several plates representing different pairs of N-TALER expression construct and reporter construct co-transformation combinations.
To confirm that the recombination occurred as predicted, several of the PCR products were sequenced. Sequencing results for PCR products generated from white colonies from the sN-TALER IV-1 and Gin18TALE+1; sN-TALER IV-1 and Gin20TALE+0; or sN-TALER IV-1 and Gin20TALE+10 reporter constructs are shown in FIG. 7. No mismatches were detected relative to the predicted recombinase core sequence in any of the PCR products sequenced thereby confirming a base-perfect recombination with N-TALERs (the few single-nucleotide mismatches detected in the sN-TALER IV-1 and Gin20TALE+0 combination were rechecked and consequently dismissed as sequencing error).

Row | Binder | activity [1] | activity [2] | activity [3] | activity [4] | activity [5]
1 | B1 | 2.5 score | – | – | – | –
2 | B2 | 1.5 score | 4 score | – | – | –
3 | B3 | – | – | 1.5 score | – | –
4 | B4 | 2 score | – | – | – | –
5 | B5 | 2 score | – | – | 2 score | –
6 | B6 | 1 score | – | – | 3 score | –
7 | B7 | 1 score | 1 score | – | 2 score | –
8 | B8 | 1 score | 3 score | – | 3 score | –
9 | B9 | 1 score | 1 score | – | – | 1.5 score
